Results published in patent US12077763B2, “RNA-based control of powdery mildew” (Greenlight Biosciences, Inc., priority 2021, dated 2024).

System: E. necator
Assay: Leaf disc assay, dry inoculum (settling tower), decrease in disease severity / hyphal growth (Example 2)
Settings: decrease in disease severity (hyphal growth) relative to untreated control, value ± SE; for % decrease =/− SE TP1: time point 1 (untreated control hyphal growth ≥50%); for % decrease =/− SE TP2: time point 2

Row | Molecule | % decrease =/− SE TP1 [%] | % decrease =/− SE TP2 [%]
1 | GS3618 (nucleic acid) sense: CGUAAGCCUUUGAUGGGUUCAGAAAUGUAGAUACAGAUUCGUAUGCGAGAAGUUGAAGUGCUGUAAAUGGUACAGUCAUGGAAAGAGUAGUUGGAUACGAGAUAUAGAAGGCUGUGAUGCCUUCAGUGCGAUAGAUAUAGCGGGCACAAUCACUCAGUGAUCUAUAAAUUUUGCGAGAGUUAUGCAUUUGCAUUCUUUGCUUUAUUACAUCAAAUGGGUUCAUUAAAGCAUCACUUGCAAUUGUUGCGCAUGCCCCACUUGUAACUAUGUAGCUUCAGUAAGUGCUCAAUAUCAAGGAUAAAUUGGCGAUGUAGUCAUAUAUGUCUGAUUCCUUAAUCAAAAUUCUUAAUACAGACCUGCUGCAAUAGGAUGAUGAGCUCCUGUUUGAUUACCUCCCAUG antisense: CAUGGGAGGUAAUCAAACAGGAGCUCAUCAUCCUAUUGCAGCAGGUCUGUAUUAAGAAUUUUGAUUAAGGAAUCAGACAUAUAUGACUACAUCGCCAAUUUAUCCUUGAUAUUGAGCACUUACUGAAGCUACAUAGUUACAAGUGGGGCAUGCGCAACAAUUGCAAGUGAUGCUUUAAUGAACCCAUUUGAUGUAAUAAAGCAAAGAAUGCAAAUGCAUAACUCUCGCAAAAUUUAUAGAUCACUGAGUGAUUGUGCCCGCUAUAUCUAUCGCACUGAAGGCAUCACAGCCUUCUAUAUCUCGUAUCCAACUACUCUUUCCAUGACUGUACCAUUUACAGCACUUCAACUUCUCGCAUACGAAUCUGUAUCUACAUUUCUGAACCCAUCAAAGGCUUACG | 27 ± 4 | –
2 | GS3622 (nucleic acid) sense: AUGAAGUGCAGGAUUUUUCUCUAUAAGUUUCUUACGUUGUAGCGCCGAAGCUUCUCUAAGUUUAAUCUCUGAUGGAGAUAAAACGUUAUAUAUAGGCGUACCAACAGCAAUUGUCCCCUCUUUAAGUAGAUAUAACUUUCGCUUAUCUUUGUCUCGGUCAGUGCGGAAGUUUGUCCCAGCUUCUGUAAGUUUUACAGCUUUUUCUCGAUUAACUGCUCUUGACACUUGAAGUACGCGACCUUCUAUUGUGUAUAAGCCAUUCUUAUCAGCAGUUUCAUCCUCUAAAAUAGAGUUUUUAGCUUUAACAGCGUUUGCACCACUUUUGAAGGUACGAGGUGCACCAUGGUAACAAGAGUCCGCAUCUUCUUGUCUAUAGAAGCAAACAAAGCCAGUGCCUUUA antisense: UAAAGGCACUGGCUUUGUUUGCUUCUAUAGACAAGAAGAUGCGGACUCUUGUUACCAUGGUGCACCUCGUACCUUCAAAAGUGGUGCAAACGCUGUUAAAGCUAAAAACUCUAUUUUAGAGGAUGAAACUGCUGAUAAGAAUGGCUUAUACACAAUAGAAGGUCGCGUACUUCAAGUGUCAAGAGCAGUUAAUCGAGAAAAAGCUGUAAAACUUACAGAAGCUGGGACAAACUUCCGCACUGACCGAGACAAAGAUAAGCGAAAGUUAUAUCUACUUAAAGAGGGGACAAUUGCUGUUGGUACGCCUAUAUAUAACGUUUUAUCUCCAUCAGAGAUUAAACUUAGAGAAGCUUCGGCGCUACAACGUAAGAAACUUAUAGAGAAAAAUCCUGCACUUCAU | 17 ± 4 | –
3 | GS3617 (nucleic acid) sense: UCAUGGAAAGAGUAGUUGGAUACGAGAUAUAGAAGGCUGUGAUGCCUUCAGUGCGAUAGAUAUAGCGGGCACAAUCACUCAGUGAUCUAUAAAUUUUGCGAGAGUUAUGCAUUUGCAUUCUUUGCUUUAUUACAUCAAAUGGGUUCAUUAAAGCAUCACUUGCAAUUGUUGCGCAUGCCCCACUUGUAACUAUGUAGCUUCAGUAAGUGCUCAAUAUCAAGGAUAAAUUGGCGAUGUAGUCAUAUAUGUC antisense: GACAUAUAUGACUACAUCGCCAAUUUAUCCUUGAUAUUGAGCACUUACUGAAGCUACAUAGUUACAAGUGGGGCAUGCGCAACAAUUGCAAGUGAUGCUUUAAUGAACCCAUUUGAUGUAAUAAAGCAAAGAAUGCAAAUGCAUAACUCUCGCAAAAUUUAUAGAUCACUGAGUGAUUGUGCCCGCUAUAUCUAUCGCACUGAAGGCAUCACAGCCUUCUAUAUCUCGUAUCCAACUACUCUUUCCAUGA | 22 ± 6 | 14 ± 6
4 | GS3619 (nucleic acid) sense: UGUAGAUACAGAUUCGUAUGCGAGAAGUUGAAGUGCUGUAAAUGGUACAGUCAUGGAAAGAGUAGUUGGAUACGAGAUAUAGAAGGCUGUGAUGCCUUCAGUGCGAUAGAUAUAGCGGGCACAAUCACUCAGUGAUCUAUAAAUUUUGCGAGAGUUAUGCAUUUGCAUUCUUUGCUUUAUUACAUCAAAUGGGUUCAUUAAAGCAUCACUUGCAAUUGUUGCGCAUGCCCCACUUGUAACUAUGUAGCUUCAGUAAGUGCUCAAUAUCAAGGAUAAAUUGGCGAUGUAGUCAUAUAUGUCUGAUUCCUUAAUCAAAAUUCUUAAUACAGACCUGCUGCAAUAGGAUGAUG antisense: CAUCAUCCUAUUGCAGCAGGUCUGUAUUAAGAAUUUUGAUUAAGGAAUCAGACAUAUAUGACUACAUCGCCAAUUUAUCCUUGAUAUUGAGCACUUACUGAAGCUACAUAGUUACAAGUGGGGCAUGCGCAACAAUUGCAAGUGAUGCUUUAAUGAACCCAUUUGAUGUAAUAAAGCAAAGAAUGCAAAUGCAUAACUCUCGCAAAAUUUAUAGAUCACUGAGUGAUUGUGCCCGCUAUAUCUAUCGCACUGAAGGCAUCACAGCCUUCUAUAUCUCGUAUCCAACUACUCUUUCCAUGACUGUACCAUUUACAGCACUUCAACUUCUCGCAUACGAAUCUGUAUCUACA | 9 ± 2 | –
5 | GS1813: dsRNA trigger SEQ ID NO 117; gene target hypothetical_protein_BC1G_11193 (nucleic acid) DNA: CAATACTTATAGACATAATGTATATTGATAATAATCTAGTGTTGCATATCATTGATGAAGCAACTAATTTTCAGGCGGCTAGGTGGCTCAATAATATCTCTGCCAAACATACATGGGATGCCATACGTGCTTGTTGGATTGATACTTACGTTGGGCCCCCAGACTGCATAATAACAGATGCTGGTAAAAACTTCGTTAGCAAGGAATTTAATCAAAATGCATCATCAATGGAAATTTCGGTGAAAAACGTTCCTGTTGAAGCGCATTGGTCAATAGGAAAAATAGAGCGCTATCACTCTTGCATTCGTCGAGCTTATAAAATTATATCAGAAGAACTAGCTGGAACCGGAATCGGCAAAGAGTTTATGCTCCAGATGGCGGTAAAAGCCATAAACGACACAGCCGGACCTAATGGCTTAGTCCCAACTCTTTTAGTTTTTGGAGCTTATCCAAGAATGTCAAATTTAGACCCTCCTATGCCATCCATAATTCAACGGGCTGCTGCAATCAAAAAGGCGATGCTAGAGATAAGTAAATTACGCGCAAAGCTAACCGTGAATAGTGCTCTAAACCATCGAAACGGACCGAATACGAATA | 11 ± 5 | 4 ± 5
6 | GS3620 (nucleic acid) sense: AGUUGAAGUGCUGUAAAUGGUACAGUCAUGGAAAGAGUAGUUGGAUACGAGAUAUAGAAGGCUGUGAUGCCUUCAGUGCGAUAGAUAUAGCGGGCACAAUCACUCAGUGAUCUAUAAAUUUUGCGAGAGUUAUGCAUUUGCAUUCUUUGCUUUAUUACAUCAAAUGGGUUCAUUAAAGCAUCACUUGCAAUUGUUGCGCAUGCCCCACUUGUAACUAUGUAGCUUCAGUAAGUGCUCAAUAUCAAGGAUAAAUUGGCGAUGUAGUCAUAUAUGUCUGAUUCCUUAAUCAAAAUUCUUAAU antisense: AUUAAGAAUUUUGAUUAAGGAAUCAGACAUAUAUGACUACAUCGCCAAUUUAUCCUUGAUAUUGAGCACUUACUGAAGCUACAUAGUUACAAGUGGGGCAUGCGCAACAAUUGCAAGUGAUGCUUUAAUGAACCCAUUUGAUGUAAUAAAGCAAAGAAUGCAAAUGCAUAACUCUCGCAAAAUUUAUAGAUCACUGAGUGAUUGUGCCCGCUAUAUCUAUCGCACUGAAGGCAUCACAGCCUUCUAUAUCUCGUAUCCAACUACUCUUUCCAUGACUGUACCAUUUACAGCACUUCAACU | 6 ± 8 | 8 ± 7
